Measurements: FireProtDB (doi:10.1021/bi050502v)

B1: Apolipophorin-3b, P10762 (parent)
chain: MNTLLAVLMLAVAAQARPDAAGHVNIAEAVQQLNHTIVNAAHELHETLGLPTPDEALNLLTEQANAFKTKIAEVTTSLKQEAEKHQGSVAEQLNRFARNLNNSIHDAATSAQPADQLNSLQSALTNVGHQWQTSQPRPSVAQEAWAPVQSALQEAAEKTKEAAANLQNSIQSAVQKPAN

Variants of: B1
Conditions: Locusta migratoria, pH 7.4, CD, Na2HPO4 KH2PO4 10 mM 2 mM, NaCl 127 mM, reversible: yes, structure 1LS4, whole UniProt chain shown; for ddG of mutation (higher = less stable) / denaturant midpoint (higher = more stable) / unfolding free energy: 25 °C, GdnHCl; for Tm / change of melting temperature, mutant - wild type (higher = more stable): Thermal

| Variant | ddG of mutation (higher = less stable) [kcal/mol] | denaturant midpoint (higher = more stable) [M] | unfolding free energy [kcal/mol] | Tm [°C] | change of melting temperature, mutant - wild type (higher = more stable) [°C] |
| --- | --- | --- | --- | --- | --- |
| MNTLLAVLMLAVAAQARPDAAGHVNIAEAVQQLNHTIVNAAHELHETLGLPTPDEALNLLTEQANAFKTKIAEVTTSLKQEAEKHQGSVAEQLNRFARNLNNSIHDAATSAQPADQLNSLQSALTNVGHQWQTSQPRPSVAQEAWAPVQSALQEAAEKAKEAAANLQNSIQSAVQKPAN [T159A] | 1.32 | 0.28 | 0.73 | 44 | -9 |
| MNTLLAVLMLAVAAQARPDAAGHVNIAEAVQQKNHTIVNAAHELHETLGLPTPDEALNLLTEQANAFKTKIAEVTTSLKQEAEKHQGSVAEQLNRFARNLNNSIHDAATSAQPADQLNSLQSALTNVGHQWQTSQPRPSVAQEAWAPVQSALQEAAEKTKEAAANLQNSIQSAVQKPAN [L33K] | 1.36 | 0.2 | 0.69 | 37 | -16 |
| MNTLLAVLMLAVAAQARPDAAGHVNIAEAVQQLNHTIVNAAHELHETLGLPTPDEALNLLTEQANAFKTKIAEVTTSLKQEAEKHQGSVAEQLNRFARNLNNSIHDAATSAQPADQLNSLQSALTNVGHQWQTSQPRPSVAQEAWAPVQSALQEKAEKTKEAAANLQNSIQSAVQKPAN [A155K] | 1.69 | 0.16 | 0.36 | 38 | -15 |
| MNTLLAVLMLAVAAQARPDAAGHVNIAEAVQQLNHTIVNAAHELHEALGLPTPDEALNLLTEQANAFKTKIAEVTTSLKQEAEKHQGSVAEQLNRFARNLNNSIHDAATSAQPADQLNSLQSALTNVGHQWQTSQPRPSVAQEAWAPVQSALQEAAEKTKEAAANLQNSIQSAVQKPAN [T47A] | -0.6 | 0.62 | 2.65 | 57 | 4 |
| MNTLLAVLMLAVAAQARPDAAGHVNIAEAVQQLNHTIVNAAHELHEALGLPTPDEALNLLTEQANAFKTKIAEVTTSLKQEAEKHQGSVAEQLNRFARNLNNSIHDAATSAQPADQLNSLQSALTNVGHQWQTSQPRPSVAQEAWAPVQSALQEAAEKAKEAAANLQNSIQSAVQKPAN [T47A T159A] | 1.06 | 0.37 | 0.99 |  |  |
